# Assay results from the supplement of paper PMC7877785.
# ± gives the uncertainty stated by the source.
# Test: self-splicing fitness, log relative to wild type (ln ratio); higher = more splicing; Tetrahymena group I intron in knt gene, E. coli kanamycin selection, DiMSum; sequences stand for … in CUCUCU…GGAGGGAAAAGUUAUCAGGCAUGCACCUGGUAGCUAGUCUUUAAACCAAUAGAUUGCAUCGGUUUAAAAGGCAAGACCGUCAAAUUGCGGGAAAGGGGUCAACAGCCGUUCAGUACCAAGUCUCAGGGGAAACUUUGAGAUGGCCUUGCAAAGGGUAUGGUAAUAAGCUGACGGACAUGGUCCUAACCACGCAGCCAAGUCCUAAGUCAACAGAUCUUCUGUUGAUAUGGAUGCAGUUCACAGACUAAAUGUCGGUCGGGGAAGAUGUAUUCUUCUCAUAAGAUAUAGUCGGACCUCUCCUUAAUGGGAGCUAGCGGAUGAAGUGAUGCAACACUGGAGCCGCUGGGAACUAAUUUGUAUGCGAAAGUAUAUUGAUUAGUUUUGGAGUACUCGUGGUCG
# Method in brief: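 The eight P1ex-region nucleotides of an intron in the knt kanamycin-resistance gene on pET-22b(+) were all randomised and the library put into E. coli BL21(DE3). Six replicate transformations were grown overnight at 37°C or 30°C on LB agar with or without 25 μg/mL kanamycin, together with 100 μg/mL carbenicillin, 50 μM IPTG and 0.2% rhamnose. Colonies were pooled and amplicon-sequenced on an Illumina HiSeq 2500. Fitness from DiMSum is the error-weighted combination of wild-type-normalised replicate fold changes, kanamycin over none.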
Sequence,self-splicing fitness (ln) (30 °C),self-splicing fitness (ln) (37 °C)
GUCGAGCAAUAUUACGCUUC,-5.12 ± 0.38,-4.17 ± 0.33
GCGGAGCAAUAUUACGUGUA,-3.49 ± 0.37,-2.58 ± 0.38
CCGGAGCAAUAUUACGUGGC,-3.77 ± 0.39,
GCAAAGCAAUAUUACGAACC,-0.831 ± 0.13,-0.43 ± 0.17
GUUUAGCAAUAUUACGUUAU,-2.88 ± 0.23,-0.357 ± 0.16
CCUUAGCAAUAUUACGUUUG,-3.99 ± 0.24,-2.47 ± 0.18
GGUCAGCAAUAUUACGGGAU,-1.12 ± 0.16,-2.85 ± 0.38
CAGUAGCAAUAUUACGACUC,-0.076 ± 0.18,0.539 ± 0.28
UCACAGCAAUAUUACGCCUC,-2.06 ± 0.35,
CUAGAGCAAUAUUACGAACC,-1.8 ± 0.47,
CUGGAGCAAUAUUACGUGAC,-1.85 ± 0.18,-0.992 ± 0.24
GAAUAGCAAUAUUACGCCCU,-0.167 ± 0.19,0.00214 ± 0.21
GUUCAGCAAUAUUACGUGGG,-2.07 ± 0.13,-1.92 ± 0.15
UGAGAGCAAUAUUACGCCUG,-2.46 ± 0.21,-1.91 ± 0.32
AUUUAGCAAUAUUACGCGUU,-2.01 ± 0.2,-1.3 ± 0.19
AGGGAGCAAUAUUACGGGGA,-3.29 ± 0.34,-2.64 ± 0.48
AAUUAGCAAUAUUACGCCAG,,-2.11 ± 0.31
UUUGAGCAAUAUUACGUCGU,-3.91 ± 0.34,-3.09 ± 0.24
AAAGAGCAAUAUUACGUGCC,-3.09 ± 0.21,-2.35 ± 0.22
UAACAGCAAUAUUACGGCAG,-0.752 ± 0.077,-0.814 ± 0.084
AAUAAGCAAUAUUACGGAAC,-4.53 ± 0.34,-2.16 ± 0.23
CCCCAGCAAUAUUACGUGGU,-2.64 ± 0.1,-2.98 ± 0.2
UUAUAGCAAUAUUACGACGG,-0.906 ± 0.11,-0.144 ± 0.16
GCAAAGCAAUAUUACGACGG,-2.23 ± 0.13,-1.2 ± 0.2
CCACAGCAAUAUUACGUAGU,-3.22 ± 0.14,-2.94 ± 0.19

Sequence,self-splicing fitness (ln) (30 °C),self-splicing fitness (ln) (37 °C)
UCUAAGCAAUAUUACGCGCA,-0.493 ± 0.11,-0.561 ± 0.13
ACAAAGCAAUAUUACGAAUG,-1.68 ± 0.057,-1.02 ± 0.085
CAUCAGCAAUAUUACGUGGC,-4.41 ± 0.27,-2.72 ± 0.19
AUCGAGCAAUAUUACGGCGA,-1.24 ± 0.18,-0.629 ± 0.17
UCUCAGCAAUAUUACGCAUU,-0.39 ± 0.11,-1.55 ± 0.15
AGCAAGCAAUAUUACGGUCA,-0.46 ± 0.07,0.00074 ± 0.084
AAACAGCAAUAUUACGUCAA,-2.45 ± 0.11,-1.44 ± 0.087
CAAUAGCAAUAUUACGGCGU,-2.07 ± 0.11,-0.986 ± 0.12
GUCCAGCAAUAUUACGACUA,-1.52 ± 0.11,-0.869 ± 0.11
AAGGAGCAAUAUUACGGAUG,-3.8 ± 0.21,-3.29 ± 0.35
GAGAAGCAAUAUUACGCAAA,-3.07 ± 0.14,-1.8 ± 0.15
GCCUAGCAAUAUUACGCCGG,,-3.09 ± 0.37
AUCGAGCAAUAUUACGAUGC,-2.77 ± 0.47,-1.77 ± 0.42
GAGCAGCAAUAUUACGUUGA,-2.38 ± 0.17,-1.32 ± 0.13
UUAAAGCAAUAUUACGCUCC,-1.79 ± 0.19,-1.08 ± 0.24
AAGUAGCAAUAUUACGCUAG,-1.57 ± 0.17,-1.04 ± 0.2
UGUUAGCAAUAUUACGAUAU,-2.45 ± 0.21,-0.289 ± 0.25
CCCAAGCAAUAUUACGAUUU,-2.62 ± 0.13,-2.21 ± 0.17
AGUUAGCAAUAUUACGGGCU,-3.01 ± 0.28,-1.79 ± 0.24
CAAAAGCAAUAUUACGUCGU,-3.83 ± 0.12,-1.54 ± 0.1
ACGAAGCAAUAUUACGGGCG,-1.15 ± 0.072,-0.126 ± 0.1
ACGAAGCAAUAUUACGUUAA,-3.25 ± 0.22,-2.09 ± 0.14
AGAAAGCAAUAUUACGUCAU,-1.55 ± 0.079,-0.954 ± 0.096
CUCUAGCAAUAUUACGCCAA,-2.35 ± 0.47,-2.31 ± 0.45
